Where “and” joins values, the source holds several entries; their conditions need not be identical. Equal entries are not always repeated.
Tests used:
human Nectin-4 = target: T1, human Nectin-4 (Homo sapiens, UniProt Q96NY8); test: Surface plasmon resonance (Biacore 8K+) binding of nectin-4 ADCs to human Nectin-4; details: human Nectin-4, 37° C., ADC Formula XI DAR 8; n=3 mean ± SD, n=2 replicate values
T1 construct: His tag; purchased Acro Biosystems NE4-H52H3
T1 sequence (Q96NY8 32-510): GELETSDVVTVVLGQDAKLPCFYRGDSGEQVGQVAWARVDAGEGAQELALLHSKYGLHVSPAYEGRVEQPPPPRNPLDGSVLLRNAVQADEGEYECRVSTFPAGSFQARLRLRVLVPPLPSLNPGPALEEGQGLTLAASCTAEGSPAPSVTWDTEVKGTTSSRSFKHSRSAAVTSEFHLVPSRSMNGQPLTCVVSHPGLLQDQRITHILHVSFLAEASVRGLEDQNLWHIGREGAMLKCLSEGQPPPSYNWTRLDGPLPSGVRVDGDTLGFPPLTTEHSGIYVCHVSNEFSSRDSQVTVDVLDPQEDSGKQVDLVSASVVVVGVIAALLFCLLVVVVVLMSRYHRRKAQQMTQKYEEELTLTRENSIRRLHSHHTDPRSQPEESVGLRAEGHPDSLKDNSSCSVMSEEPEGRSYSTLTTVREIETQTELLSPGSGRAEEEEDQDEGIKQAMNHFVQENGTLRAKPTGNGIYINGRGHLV
Experimental: (§1) An anti-human Fc sensor surface was prepared by amine-coupling of goat anti-human IgG Fc (Southern Biotech Cat. No. 2014-01, Birmingham, AL) to a Biacore Series S CM4 (Cytiva Cat. No. BR-100534) sensor surface at 25° C. For immobilization, a running buffer of 10 mM HEPES, 150 mM NaCl, 0.05% Tween-20, pH 7.4 was used. Flow cells 1 & 2 of all 8 channels were activated with a 1:1 (v/v) mixture of 400 mM 1-Ethyl-3-(3-dimethylaminopropyl) carbodiimide hydrochloride (EDC) and […] N-Hydroxysuccinimide (NHS) at a flow rate of 10 uL/min for 7 minutes. Then the anti-human IgG Fc capture reagent was coupled to the sensor surface (diluted to 50 μg/mL in 10 mM Acetate pH 4.5 buffer) by injecting it in all flow cells and channels at a flow rate of 10 uL/min for 7 minutes. Remaining active groups were blocked by injecting 100 mM ethylenediamine (in 200 mM Borate buffer, pH 8.5) in all flow cells and channels at a flow rate of 10 uL/min for 7 minutes. All channels and flow cells were then preconditioned using three consecutive 1-minute injections of 75 mM phosphoric acid at 10 uL/min.
(§2) In each analysis cycle, a different ADC was captured on flow cell 2 of each channel by injecting it at 5 μg/mL and 10 uL/min. After capture, the same analyte was injected on flow cells 1 and 2 in all 8 channels for 2 minutes at 30 uL/n and dissociation was monitored for 10 minutes. After dissociation, all surfaces were regenerated with three 1-minute injections of 5 mM phosphoric acid at 10 uL/min. ADC capture and analyte cycles were repeated to obtain analyte binding of each ADC at concentrations of 0, 2.5, 7.4, 22, 67, 200 and 600 nM nectin-4.
(§3) Sensorgram data were fit globally with the default 1:1 binding model in Biacore Insight Evaluation Software v3.0.12.15655.

[1] = test system: UMUC3-Luc-GFP + UMUC3-hNectin4 clone F7; test: Bystander killing of UMUC3-Luc-GFP cells co-cultured with UMUC3-hNectin4 clone F7 (ONE-Glo); assay type: cell-based, human; details: UMUC3-hNectin-4 cloneF7/UMUC3-Luciferase-GFP 4:1, 5 days
Experimental: UMUC3 cell line was engineered to express human Nectin4 and two clonal populations with different levels of expression were selected. In flat white clear-bottom 96-well plates, UMUC3-hNectin4 clone F7/UMUC3-Luc-GFP cells were mixed and seeded at a total of 1500 cells/well/100 ul with a ratio of 4:1 in assay medium (MEM+1× GlutaMax+10% Heat Inactivated Fetal Bovine Serum+1 mM sodium pyruvate). UMUC3-hNectin4 clone E3/UMUC3-Luc-GFP cells were mixed and seeded at a total of 2100 cells/well/100 ul with a ratio of 6:1 in assay medium. UMUC3-Luc-GFP cells were negative for nectin-4 expression. Plates were incubated at 37° C. with 5% CO2 overnight. […] Plates were read after 5-days treatment using ONE-GloTM Luciferase Assay System. […] Luminescence was read in the SpectraMax M5e. […] Percentage of UMUC3-Luc-GFP killing was calculated against no treatment as 0%. Data was graphed and analyzed using Graphpad Prism version 9.5.1. IC50 was determined via log(inhibitor) vs. response (three parameters) curve fitting for bystander activity and log(inhibitor) vs. response (four parameters) for free payload cytotoxicity. […] In experiments run as essentially described herein, the bystander effects of four nectin-4 ADCs described herein and enfortumab vedotin were evaluated using the UMUC3-hNectin-4 cloneF7/UMUC3-Luciferase-GFP cell pair. […]

rat Nectin-4 = test: Surface plasmon resonance (Biacore 8K+) binding of nectin-4 ADCs to rat Nectin-4; details: rat Nectin-4, 37° C., ADC Formula XI DAR 8, n=1
Experimental: as §1, §2, §3

[2] = test system: T24 mScarlet clone 5 Nectin-4 negative cells; test: Bystander killing of T24-mScarlet clone 5 cells co-cultured with T24-human nectin4 clone108 (imaging); assay type: cell-based; details: T24-mScarlet clone5 : T24-human nectin4 clone108 9:1, 5 days, ADC Formula XI DAR 8; read-out: IC50 of bystander effect
Experimental: T24 cell line was engineered to express mScarlet and clonally selected to test in bystander assay. T24-mScarlet clone5 and T24-human nectin4 clone108 were mixed and seeded at a total of 1000 cells/well/100 ul with a ratio of 9:1 in culture medium (McCoy's 5A+1× GlutaMax+10% Heat Inactivated Fetal Bovine Serum+400 μg/ml G418) in flat clear bottom 96-well plates. T24 mScarlet clone 5 cells were negative for nectin-4 expression. Plates were incubated at 37° C. with 5% CO2 overnight. Next day, ADCs were added at final working concentration from 50 nM, 1:4 serially diluted in culture medium. Plates were covered with Breathe-Easy® sealing membrane, placed in BioSpa and scanned in Cytation5 every day for 5 days.
Images of T24-mScarlet cells were captured and analyzed by Cytation5 with Gen5 Image Prime 3.11. Percentage of T24-mScarlet cell killing was calculated by decreased Integrated Intensity (area×mean intensity), normalized to zero hour and no treatment. Data was graphed and analyzed using GraphPad Prism version 9.5.1. IC50 was determined via log(inhibitor) vs. response-variable slope (four parameters) curve fitting.

cyno Nectin-4 = test: Surface plasmon resonance (Biacore 8K+) binding of nectin-4 ADCs to cyno Nectin-4; details: cyno Nectin-4, 37° C., ADC Formula XI DAR 8, n=1
Experimental: as §1, §2, §3

B1: Ab1a (conjugate)
heavy: QVQLVQSGAQVKKPGASVKVSCKASGYTFTGYYIHWVRQAPGQGLEWMGWINPNSGGTNYAQKFQGRVTMTRDTSISTAYMELSRLRSDDTAVYFCAREDWDFDYWGQGTLVTVSSASTKGPSVFPLAPSSKSTSGGTAALGCLVKDYFPEPVTVSWNSGALTSGVHTFPAVLQSSGLYSLSSVVTVPSSSLGTQTYICNVNHKPSNTKVDKRVEPKSCDKTHTCPPCPAPEAAGGPSVFLFPPKPKDTLMISRTPEVTCVVVSVSHEDPEVKFNWYVDGVEVHNAKTKPREEQYNSTYRVVSVLTVLHQDWLNGKEYKCKVSNKALPAPIEKTISKAKGQPREPQVYTLPPSREEMTKNQVSLTCLVKGFYPSDIAVEWESNGQPENNYKTTPPVLDSDGSFFLYSKLTVDKSRWQQGNVFSCSVMHEALHNHYTQKSLSLSPGK
light: EIVLTQSPGTLSLSPGERATLSCRTSQSVSSSYLAWYQQKPGQAPRLLIYGASNRATDIPDRFSGSGSGTDFTLTINRLEPEDFAVYYCQQYGSSPITFGQGTRLEIKRTVAAPSVFIFPPSDEQLKSGTASVVCLLNNFYPREAKVQWKVDNALQSGNSQESVTEQDSKDSTYSLSSTLTLSKADYEKHKVYACEVTHQGLSSPVTKSFNRGEC
Human Nectin-4
  ka: 2.83 × 10^5, 1/Ms and 4.24 × 10^5 1/Ms
  kd: 4.02 × 10^−2, 1/s and 3.08 × 10^−2 1/s
[1]
  Bystander effect (in words): potent bystander effects
Rat Nectin-4
  ka: 252000 M⁻¹ s⁻¹
  kd: 0.0453 s⁻¹
[2]
  IC50: 0.041 nM
Cyno Nectin-4
  ka: 310000 M⁻¹ s⁻¹
  kd: 0.026 s⁻¹

— patent publication US20250000991A1, “NECTIN-4 ANTIBODIES AND ANTIBODY-DRUG CONJUGATES” (Eli Lilly and Company, priority 2023, published 2025)
